Assay results from article PMC10415362, “Mechanism of U6 snRNA oligouridylation by human TUT1”.

Biological target: T1, hTUT1_ZF-RRM (Homo sapiens, UniProt Q9H6E5 1-140)
T1 sequence: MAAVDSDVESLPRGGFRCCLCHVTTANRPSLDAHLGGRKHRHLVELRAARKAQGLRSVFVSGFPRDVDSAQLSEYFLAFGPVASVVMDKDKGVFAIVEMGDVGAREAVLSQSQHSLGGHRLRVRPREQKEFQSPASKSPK
Experiment: EMSA; 10 mM MgCl2; EMSA: 50 mM Tris-Cl pH 8.5, 100 mM NaCl, 10 mM MgCl2, 10 mM beta-mercaptoethanol, 10% glycerol, room temperature 15 min; RNA 50 nM (U6) or 100 nM (U6_mini); protein 0-1000 nM
Conditions: protein: recombinant; tags: His tag implied (pET22b, Ni-NTA); hairpin with 5' single strand

B1: U6_mini (structured_RNA)
RNA: GGAUACUAAAAUUGGAACGAUACAGAGUUCGCUCGUGAAGCGUUCCAUAUUUU
  Kd: 204 ± 41 nM
